The text below walks through data of article PMC3737334 (RNA Biology, 2013).

What is called Kd is the free concentration of one partner at which half of the binding sites on the other are occupied at equilibrium, for simple one-to-one binding.

The data set “crystal structure” concerns the molecule itself. Kind of data set: crystal structure.
The data set “SEC” concerns the molecule itself. Kind of data set: SEC. For orientation: SEC sorts molecules by how far they enter the pores of the column.
In a further data set the target is T1, Csa5 (UniProt Q97Y90 1-150).
T1 sequence: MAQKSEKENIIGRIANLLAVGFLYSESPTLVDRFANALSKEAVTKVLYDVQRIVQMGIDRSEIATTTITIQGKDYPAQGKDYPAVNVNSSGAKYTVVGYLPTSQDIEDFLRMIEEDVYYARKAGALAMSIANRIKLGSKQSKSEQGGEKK
Kind of data set: fluorescence anisotropy. In general terms: In fluorescence polarisation assays a small probe gives low polarisation when free and higher when bound to something large.

The target of data set [1] is T2, Cas5 (Cas5/Cas7 core complex);Cas7 (Cas5/Cas7 core complex) (Sulfolobus solfataricus P2?;Sulfolobus …, UniProt Q97Y92;Q97Y91 1-240;1-321, |).
T2 sequence 1: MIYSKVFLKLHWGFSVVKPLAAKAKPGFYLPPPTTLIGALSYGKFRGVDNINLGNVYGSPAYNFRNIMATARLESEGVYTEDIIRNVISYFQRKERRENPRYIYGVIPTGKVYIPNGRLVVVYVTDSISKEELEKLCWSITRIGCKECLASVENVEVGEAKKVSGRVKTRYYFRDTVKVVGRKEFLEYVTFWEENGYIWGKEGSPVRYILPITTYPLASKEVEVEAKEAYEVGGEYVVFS
T2 sequence 2: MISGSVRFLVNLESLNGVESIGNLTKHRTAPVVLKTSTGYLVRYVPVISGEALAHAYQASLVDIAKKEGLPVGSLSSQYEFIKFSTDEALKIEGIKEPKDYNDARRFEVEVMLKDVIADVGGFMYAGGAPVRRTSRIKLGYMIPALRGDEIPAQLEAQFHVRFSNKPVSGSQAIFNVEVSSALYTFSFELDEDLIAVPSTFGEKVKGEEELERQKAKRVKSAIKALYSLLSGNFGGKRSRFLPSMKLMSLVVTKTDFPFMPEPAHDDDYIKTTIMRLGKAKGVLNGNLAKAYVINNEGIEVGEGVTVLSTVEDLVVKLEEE
Kind of data set: fluorescence anisotropy.

B1: Sso1398 (Csa5 paralog), selenomethionyl derivative (natural protein, S. solfataricus)
chain: MEASEPVAETISKRFWTLIKMLRFYVVLRRFGYIDPLIYSIDPKQIKDVLSEALREFVSYTSSSSSRSIVIYDDPKNPVTAQAPCLVVAKRDEIPQNFPSIYRYTIYKIDKSSEYCISPLVVNDKYATLITPNESVIKEFFDKLDSNIQYARVLASLAVGGE
modifications: selenomethionine in place of methionine
Take B1: the binding result in the data set “crystal structure” was “binds”.

B2: Sso1398 wild type (Csa5 paralog) (natural protein, S. solfataricus)
chain: B1 chain
Consider B2, for which the binding result in the data set “SEC” was “binds”. For the molecule CCTCGAGGGATCCGTCCTAGCAAGCCGCTGCTACCGGAAGCTTCTGGACC (ssDNA) [non-target ssDNA], in the data set with Csa5, the binding result is “no binding”.

B3: crRNA (spacer 26, CRISPR locus A) (ssRNA)
RNA: AUUGAAAGACCAUACCCAACUUCUAACAACGUCGUUCUUAACAACGGAUUAAUCCCAAAA
For the molecule B3, the Kd in data set [1] stood at 1.38 ± 0.14 µM. The binding result in the data set with Csa5 was “no binding”.

B4: crRNA/protospacer heteroduplex (DNA:RNA)
RNA: B3 RNA
DNA: GATCCTCTCCACGTTGTTAAGAACGACGTTGTTAGAAGTTGGGTATGGTTGGCTG
Regarding B4, the binding result in the data set with Csa5 was “no binding”.
